In patent publication US20100129315A1:

Target: human MN protein, entire extra-cellular domain with a C-terminal histag, expressed in HKB-11 cells (human), Q16790
Experiment: SPR (BIAcore 3000), IgG captured on anti-human IgG Fc, soluble MN as analyte, 1:1 Langmuir fit
Settings: remark: other sources report otherwise

- Kd: 1 nM
B1: 3a4 full-length human IgG1 antibody (antibody)
chain 1: QVELVESGGGLVQPGGSLRLSCAASGFTFSDYSINWVRQAPGKGLEYVSNISYSGSSTYYADSVKGRFTISRDNSKNTLYLQMNSLRAEDTAVYYCARFKYSGGSDSWGQGTLVTVSS
chain 2: DIELTQPPSVSVAPGQTARISCSGDNLPDFYVHWYQQKPGQAPVLVISEDNKRPSGIPERFSGSNSGNTATLTISGTQAEDEADYYCSTYGYTYSYSVFGGGTKLTVL
